{
  "source": "patent US20240132559",
  "key": {"ZF16-MQ1 (synthetic)": {"target": "ZF16-MQ1 (synthetic) (UniProt P15840)", "sequence (P15840 other isoform, or with tags, fused parts or gaps)": "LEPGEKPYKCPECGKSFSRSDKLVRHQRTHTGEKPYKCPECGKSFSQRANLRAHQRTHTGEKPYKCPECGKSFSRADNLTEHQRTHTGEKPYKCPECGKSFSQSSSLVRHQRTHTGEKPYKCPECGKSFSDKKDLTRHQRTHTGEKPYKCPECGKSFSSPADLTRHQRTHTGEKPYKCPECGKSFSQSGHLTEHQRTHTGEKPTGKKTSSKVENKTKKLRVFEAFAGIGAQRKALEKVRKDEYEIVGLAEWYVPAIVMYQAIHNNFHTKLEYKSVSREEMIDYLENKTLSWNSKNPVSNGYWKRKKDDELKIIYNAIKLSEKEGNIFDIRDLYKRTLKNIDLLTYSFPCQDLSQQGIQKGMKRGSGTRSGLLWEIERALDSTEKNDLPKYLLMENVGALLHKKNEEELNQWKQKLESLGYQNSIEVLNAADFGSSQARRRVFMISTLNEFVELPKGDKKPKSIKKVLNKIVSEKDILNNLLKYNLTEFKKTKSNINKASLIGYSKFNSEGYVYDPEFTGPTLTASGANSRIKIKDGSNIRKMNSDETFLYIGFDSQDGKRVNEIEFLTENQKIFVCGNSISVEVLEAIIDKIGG", "assay": "cell_activity", "details": "LL2 cells"}, "ZF17-MQ1 (synthetic)": {"target": "ZF17-MQ1 (synthetic) (UniProt P15840)", "sequence (P15840 other isoform, or with tags, fused parts or gaps)": "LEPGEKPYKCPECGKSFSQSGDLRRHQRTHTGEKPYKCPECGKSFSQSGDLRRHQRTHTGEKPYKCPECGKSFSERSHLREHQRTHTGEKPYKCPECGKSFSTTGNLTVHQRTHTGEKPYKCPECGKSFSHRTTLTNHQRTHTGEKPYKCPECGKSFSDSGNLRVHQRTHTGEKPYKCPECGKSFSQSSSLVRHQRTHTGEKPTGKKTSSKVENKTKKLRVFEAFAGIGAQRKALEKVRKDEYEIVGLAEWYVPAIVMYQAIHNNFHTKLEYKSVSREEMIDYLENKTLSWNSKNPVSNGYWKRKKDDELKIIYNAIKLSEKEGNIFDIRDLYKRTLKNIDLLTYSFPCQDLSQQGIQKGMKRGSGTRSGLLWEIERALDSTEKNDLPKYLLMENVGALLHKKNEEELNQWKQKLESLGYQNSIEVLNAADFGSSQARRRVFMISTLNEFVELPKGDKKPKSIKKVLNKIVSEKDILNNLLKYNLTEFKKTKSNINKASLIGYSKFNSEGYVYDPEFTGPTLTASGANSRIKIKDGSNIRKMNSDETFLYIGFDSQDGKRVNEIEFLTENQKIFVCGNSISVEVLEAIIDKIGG", "assay": "cell_activity", "details": "LL2 cells"}},
  "data": [
    {"substance": "mouse Myc genomic locus", "values": [
      {"measurement": "activity (% MYC mRNA reduction)", "setting": "ZF16-MQ1 (synthetic)", "value": 74},
      {"measurement": "activity (% MYC mRNA reduction)", "setting": "ZF17-MQ1 (synthetic)", "value": "> 99.9"}
    ]}
  ]
}
